This data set can be described thus: soluble on expression in E. coli; label from the status in PepcDB or PDB records.
As to “MGSDKIHHHHHHMQQSTPYLSFRGIGKTFPGVKALTDISFDCYAGQVHALMGENGAGKSTLLKILSGNYAPTTGSVVINGQEMSFSDTTAALNAGVAIIYQELHLVPEMTVAENIYLGQLPHKGGIVNRSLLNYEAGLQLKHLGMDIDPDTPLKYLSIGQWQMVEIAKALARNAKIIAFDEPTSSLSAREIDNLFRVIRELRKEGRVILYVSHRMEEIFALSDAITVFKDGRYVKTFTDMQQVDHDALVQAMVGRDIGDIYGWQPRSYGEERLRLDAVKAPGVRTPISLAVRSGEIVGLFGLVGAGRSELMKGMFGGTQITAGQVYIDQQPIDIRKPSHAIAAGMMLCPEDRKAEGIIPVHSVRDNINISARRKHVLGGCVINNGWEENNADHHIRSLNIKTPGAEQLIMNLSGGNQQKAILGRWLSEEMKVILLDEPTRGIDVGAKHEIYNVIYALAAQGVAVLFASSDLPEVLGVADRIVVMREGEIAGELLHEQADERQALSLAMPKVSQAVA”, the “soluble on expression in E. coli” value was “not soluble”.

Take “MGSDKIHHHHHHMQTPSYFTPASFDFLTKLEHNNNREWFKANQAEYELQVRTPALHFIEAMSGSVVDLSPRLTAVAKKVGGSLMRPQRDSRFSKDKTPYKLNVGIQFRHFQAKDVHAPGLYLHLANDGCFIAAGIWHPESKALNAIRHCIDENPKGYQKAIANLTAAGFELSGDSLSRPPRGFDKSHPLIDELKRKDFIAIKDISLEQVCQLDLVDFCAQQYQYTSALMYYLCFALDLDF”: the “soluble on expression in E. coli” value is listed as “not soluble”.

With “MGSDKIHHHHHHMQVNRLFQIIYILLEKNSVTARELAEKIEVSKRTIYRDIETLSTAGIPVYMTKGKGGGISILPNFILNKAILTEEEKSEIISSIRAVNAVNFSDSEAEKVLIKLNSILGENDTDWIEVDFSNWGNAEKEKETFNNLKTAILSKKVVKFDYSSAKGENISRKVCPLKLCFKGQSWYMYGYCGIRNDYRFFKLRRIKDLYVSEESFNIKAPKKIMKEDNVFYDEFITLKMKISSKMAYRIYDEFEDFKKLDDGSFIVTAEYPKGEWLFSYISSFGEECEVLAPQEIREEIKNKIEKMLLNYS”, the “soluble on expression in E. coli” value was “not soluble”.

In the case of “MGSDKIHHHHHHMQVPKVTLNNGVEMPILGYGVFQIPPEKTEECVYEAIKVGYRLIDTAASYMNEEGVGRAIKRAIDEGIVRREELFVTTKLWVSDVGYESTKKAFEKSLKKLQLEYIDLYLIHQPFGDVHCAWKAMEEMYKDGLVRAIGVSNFYPDRLMDLMVHHEIVPAVNQIEIHPFYQRQEEIEFMRNYNIQPEAWGPFAEGRKNIFQNGVLRSIAEKYGKTVAQVILRWLTQKGIVAIPKTVRRERMKENISIFDFELTQEDMEKIATLDEGQSAFFSHRDPEVVKWICSLKR”, the “soluble on expression in E. coli” value is given as “soluble”.

For “MGSDKIHHHHHHMRAFEKIPAFQQWQKVEAIHRGWSTDLKFKVTKNQETFLLRIFQQEELLAKQQEYQFIKKVAALGFPSSKPFLCAPIPESEQGYMLLTYLEGEDLSDVLPALSPKRQLNLGVEAGRYLNKIHKLLLPERISQREIAQNLYEKKQSQLNKYKESQFCMPYQQPIISYLEKQLPLLQQRPVVYQHGDFHVGNFIYLPTRQVGVIDFNRWDFGDPYEEFYKLQFFSRNVSPLFAYGQLQGYFAGKVPTLFWQFQKLYTFHAGLYSLVWALSFGEKEIRTMEQQYQQLLEDYNCGELLVPKWFSTIQRKGLRF”, the “soluble on expression in E. coli” value is “not soluble”.

On to “MGSDKIHHHHHHMRAYDVILKKRNGEKLSREEIEFMVGGYVKGEIPDYQMAAFLMAVYFRHLDEEETYYFTETMMRSGEVLDLSEIPGTKVDKHSTGGVGDKTTLVVAPLVASAGVPVAKMSGRALGHTGGTIDKLESIPGFRTELSLEEFIKNVKKYGIAIVGQTGNLVPADKKIYALRDATATVDEISLIASSIMSKKLAGGSDAFVLDVKFGTGAFMKGFEDAKKLAFLMLRIAQQHGKKAVAVLSNMDQPLGKAVGNSLEVIEAIETLKGNGPEDLKELSLTLGALMLELAGVADFEEGKKILQEKLETGEALDKFRLLVKAQGGNERVVDDPWRVLPVAEQVVEFSAAREGFVSKIDAEKVGIASMMLGAGRKKKEDRIDHSVGIIVEKKLGDSVKKGEAIARLFVSDRSDVESALKLLKEAYVISDSPSEPPRVVEEVIK”, for which the “soluble on expression in E. coli” value is given as “not soluble”.

Take “MGSDKIHHHHHHMRDNTHSLEGVARLLLRSEAVASSRIEGIAPNSDKVAMAILARESDSEIRGFKESATAVARNVAILDTINADLAYKDELVLDDIVAMQTALVHAQFETIHPFPDGNGRVGRAMIHALLQRRGLTDAAVLPVSMVLATLGDRYVDGLTKFREGDVLAWISFFVEAAQVATTKAAELADSVAALEAEWMDKVNHHRTAQEASCHAFGHGAHREVRTGDFIDKHGPRCSRFTHRRWHST”: the “soluble on expression in E. coli” value was “not soluble”.

With “MGSDKIHHHHHHMRDQQLFLFGGGPPFTPMLCRQFVSCLKQSGPVALLYVPRPGSNWDDYAPIYTDALTANGVTDFFHFPLSARPTSEQLEQLAGSAGIIISGGETERYQQFIVGTPIGTIIQERFQHGVPVAGFSAGALLTPDECRIPVIDQRNGQALVLKGLGLLTDAVISVHYDTWQEETNLSDAFMKTASNFGYGLPERSGIHLKNGQLMQQEGPEVVLLRQKGEYI”, the “soluble on expression in E. coli” value is recorded as “not soluble”.

As to “MGSDKIHHHHHHMRGVLTMIRLFKAIPELELPVYSGEDSPVDGTEKTTGFLISNHVPGEQVEETLLVASAEIKTSQTGREWLQFTFNSPSGSCKGKQWLNQGTAEEAMRPYLETGIVHVSAKVDEYPVDSGNKSLTVQTVKAVHDQSGTAYLPQMPAGESAKDYRDQLIGLIEKMETPLRQVAHRVVSAYWDDFSTRPAALYHHHAYIGGLLKHTACMMTIGFGICQSERPDLTLLQCIQEAEADHKNDLFQAGERDMRQFAWDDSFDALYQSARSIALLNERPHQDELLLGILLHDIGKIFEYTHLGASGDRFSRLVQTEPASEKLSGIALDPNGVLIGHMPYGCFVLEQALQTEAVRLPVDQYHRLMHMILSHHGKKEWGSSVTPQTTDAWYLHAIDLLDARKEKWRQSQLT”, the “soluble on expression in E. coli” value is reported as “not soluble”.

“MGSDKIHHHHHHMRIAIIAITRNGARLGTQLRDGLGSAELYVLQKFAGQAGTGAVPFAGELKGLVAELWPAFDGFVFIMATGIVVRMVAPHLVAKDLDPAVVVMDDAGKFAVSLLSGHLGGANELACRCAFVTGAREVITTATDANNLPSFDMLAKEEGWAIDDLCRVKTLNALILEGEEIAVVDPTDRVRTAFHGTARLTFHDTFVEALQSGAKGFVFVTNRRLPPQAQADSLLILRPRNLALGIGCNSGTGAEEIAAVVGAQMKRLFLSLKSVACIGSAVAKQDEAGLLAFAREHGLPLRFFESGELNSVTVPSPPSAHALEAIGATGVAEPAAVLASNGGRLLLKKIKSGNVTLAIAEIP”: the “soluble on expression in E. coli” value is “not soluble”.

Take “MGSDKIHHHHHHMRIDIDAFNVLQVLVEEGSFAKASERLHKAQSAVSYQVKKLEQHLGVTLFNRDHYRAELTPEGKVILAEGQRLLQHLANIEHLASRFSQGWEPKLELVIDGALPMEPIMTALKRMSEHNIPTKVQLNMEFLGGVQHRFERDQADLMLVKDYRTGPSYHPKPLPTITSVLVASSQHPLSLLKEISLPELQQHVELTIEDSSPGKRDRDEMQFGGDKVFYLSGFIMKKNALLKGLGFGWMPDFLIAEELHQRQLIEVDFIGGNRFSFTPQLVSTLERPLGRAGQLFTELILEEFAQYQLQHQSGLSGAGLG”: the “soluble on expression in E. coli” value is recorded as “not soluble”.

For the sequence “MGSDKIHHHHHHMRIEVWGGAGEYGRSCYFVKNKETKILFDCGINRSYEDSYPKIEREVVPFLDAVFLSHIHEDHTMGLPLLAKYGYKKKIWTTRYTKEQLPAYYEKWRNYNLAQGWHVPYTDQHVKDLNYVYIDEISNPNEWVQITPTLRFQWGYSGHVLGAVWFLLDMSHTYVFYSGDYSAESNILRANLPEKLHGDIKVAIVDAAYHTDDVSQHERINELCTEIERAAGNKGITLLPLPPLGRAQDIVLYLYKKYKELPIIVDQEILDGFQQMFAYKDWIKNNEELEELMESLKRNIIVMDDDSGTQHSYGIVVMSDANMQTKRAQLYYEQLRHDERNSIIFTGHIAKGSFAEKVLKERVGKECRVKRVPYKVHQSIRDVKEMLNTLSPEHTVLVHALKEDTDRLQKKLSTAGYENVYSLTMERIEVI”, the “soluble on expression in E. coli” value is reported as “not soluble”.

With “MGSDKIHHHHHHMRIGLFTDTYFPQVSGVSTSIRTLKEGLEKEGHEVYIFTTTDRNVKRFEDPTIIRLPSVPFISFTDRRVVYRGLISAYRIAKDYELDIIHTQTEFSLGLLGKLVAKALRIPVVHTYHTQYEDYVGYIAKGKLIKPSMVKYIMRTYLSDLDGVICPSRIVLNLLDGYGVKIPKQVIPTGIPVENYRREDISEETIKNLRTELGLADNDTMLLSLSRVSFEKNIQAILMHLSAVVDENPHVKLVIVGDGPYLSDLKELVHSLELENSVIFTGMVEHSQVAIYYKACDFFISASTSETQGLTYIESLASGRPIIAQSNPYLDDVISDKMFGTLYKKESDLADAILDAIAETPKMTQEAYEQKLYEISAENFSKSVYAFYLDFLISQKASVKEKVSLTIGNKDSHSTLRFVRKAVYLPKKVFTFTGRASKKVVKAPKRRISSIRDFLD”, the “soluble on expression in E. coli” value is reported as “not soluble”.

For “MGSDKIHHHHHHMRKKIVFIIRDLGYGGAQRQLITLVKNLDKQIFNTTVIFFYANGSLQKDLENNNIQTICLEKRGRWDIFGFLWRLMGHLKRIQPDSLHGYLSESNLLTIFLKPFFLSTSIIWGIRDSNISLDSYDWLDRLIFEIECLLSRFVDLIIVNSHAGQAYHLSHGFPAKKMVVIPNGIDTERFQPNSEAGLRVRTEWRISKDTILIGLIGRLDPMKDHPTFLKAVALLCKERENVCFVCVGIGTHEYAQELYQLAEELEVAEKVIWAGGRADMPDIYNALDITCSSSSYGEGFSNVIGEAMACGVPCVVTDVGDSAWIIDDTGIVVPPNNPEALKAGITSLINIISSKSYSSCHIRQRIISHFSVLNLSLKTQNSLLSINVL”, the “soluble on expression in E. coli” value is listed as “not soluble”.

On to “MGSDKIHHHHHHMRLDHLRLQNFRCYEDAHFDFQPGFNLVVGVNGSGKTSLLLGVAECLIPYGNAMGQGQEILSKEDVRFVIDRHEGRSRFERKFPVFIRADGDIFDLPNWRAVRLLEPWEGGVDPSSLSHLSAVLARNNAGEQIDFPVLAFYRANRRWSSARISAEFAAQQRTSRFDGYANWFDAVADLRDFESWLIARTLERLQDRLDSTPTVEREDELEWVNRAIRLAIPDAHDLRYDLRLQSLLVDMGEGNAVPFHELSDGQRSLIALIADIARRMCVLNPHIGKDVLANTGGIVIIDELDIHLHPAWQRNIAPTLKKAFPKVQFIATSHSPQVIGSLQPGEVILLKNGDSSHPRATYGLDSSTILEEVMGVPQREPEIEVLLDELFSTLENNELEKARLQLDALKKKAPDLPEFAGAEALLKRKELIGR”, for which the “soluble on expression in E. coli” value is on record as “not soluble”.

Take “MGSDKIHHHHHHMRLGVNEAVELSLGELQNTPSISYFNSIVLSLNKVQKGSLFVAKDHTLIPKALELGAYGILYTGEYPVSDRDVAWIKLKDIEHSLNHLFKFCLLNERVVGALLSPIELEIASKIMVSNFVWCLKESLEDLFIIEGCKIAFFDKLEWLHLFYKQEHLKEDLKESCLIILNQSFFCSALVYEKQEYEFKMPCIFLGSLKRVIQLCEKLQIEFDLNLLGKKEYPLDHCKPFFVNKNLEIAPYGTTARVIVAETSKELFEMMLQKAFEILSWGKIVVFCRKNSAAFFKKTNPYFYTTQNNLKEQLKNLAFNFAFIHGISSHHLESLLNPPFFKKTPTLW”: the “soluble on expression in E. coli” value is “not soluble”.

For the sequence “MGSDKIHHHHHHMRLTIHHTTRYRFDEPVSFGLQQLRKTPKTNTNQQVVEWQTRIIGGQKEVSFDDHHHNVTELISFEPGVTELELVSEGVVELTDTHGVVGRHRGPSPLWLYARPTVLTEARAGVRELIRDLDDSNPVDMLHQLSARIREAITYQIGVSELGWSAEDAIQSAHGVCQDHAHVFIACARKLGLPARYVSGYLMLDDRTTQDAMHAWAEAHVEGLGWVGFDVSNGISPDARYVRVATGLDYSDAAPVSGTRIGGAGEALDVQIEVAQQ”, the “soluble on expression in E. coli” value is “not soluble”.

The values are drawn from the DeepSol protein solubility set.
